Reference: patent US20060104978A1, “Methods and compositions for PDGF-C activation and inhibition” (LUDWIG INSTITUTE FOR CANCER RESEARCH, priority 2003, published 2006)

Key:
[1] = test system: tPA; assay: Cotransfection assay in COS-1 cells: PDGF-CC forms and mutants coexpressed with tPA; format: cell-based, human; settings: COS-1 cotransfection with tPA, immunoblot; cleavage site mutant made from mouse PDGF-C cDNA
Text: The structural requirements for recognition of full-length PDGF-CC as a substrate for tPA were mapped by analysis of several mutated forms of PDGF-CC using the co-transfection assay. The mutants of PDGF-CC included a chimeric form of PDGF-C carrying the CUB domain from PDGF-D and the hinge region and growth factor domain of PDGF-C (mutant PDCUBPC), and several truncation mutants lacking the CUB domain and increasing parts of the hinge region (schematically illustratrated in FIG. 6A). All mutants were properly expressed in transfected COS-1 cells, formed disulfide-linked dimers (data not shown), and were efficiently secreted, except truncation mutant Δ190 that was expressed at a lower level in the conditioned medium (FIG. 6B).
A conserved site of four amino acids containing three basic amino-acid residues (amino-acid residues -R-K-S-R-) was previously identified as a potential site for proteolytic activation of latent PDGF-CC (Li et al, 2000). […]
To test the endogenous expression of PDGF-CC, subconfluent AG1523 cells and primary fibroblast cultures were cultured in serum-free DMEM overnight. […] In the case of the primary cultures, total protein concentration was measured and normalized (Bradford, 1976). […] PDGF-C and PDGF-D were detected by immunoblotting using affinity-purified polyclonal rabbit antibodies against PDGF-C (Li et al, 2000) and PDGF-D (Bergsten et al, 2001), respectively. […]

[2] = target: T1, latent PDGF-CC (Homo sapiens, UniProt Q9NRA1); assay: Cotransfection assay in COS-1 cells: protease plus full-length PDGF-C; format: cell-based; settings: α2-anti-plasmin 10 ng-1 μg added to the cotransfection medium for 24 hours
T1 construct: cotransfected with full-length PDGF-C (Li et al, 2000), full-length PDGF-D (Bergsten et al, 2001); expressed in transfected cells; host or cells: COS-1 cells
Text: A cotransfection assay was established to identify serine proteases able to cleave and activate latent PDGF-CC. Expression plasmids encoding the relevant enzymes and full-length PDGF-C were cotransfected into COS-1 cells, and aliquots of the conditioned media from the transfectants were subjected to SDS-PAGE and immunoblotting using antibodies to the growth factor domain of PDGF-C. […] As a specificity control, the ability of tPA and NT to use full-length PDGF-DD as the substrate in the cotransfection assay was analysed. […] One difference in the latter results, as compared with the results from the cotransfection assay, was that purified tPA generated a second intermediate species of 32 kDa using latent PDGF-CC as the substrate. It is possible that this intermediate is the result of digestion by plasmin contamination in the tPA preparation, since the size of the fragment is similar to that of plasmincleaved PDGF-CC previously reported (Li et al, 2000). […]
To test the endogenous expression of PDGF-CC, subconfluent AG1523 cells and primary fibroblast cultures were cultured in serum-free DMEM overnight. […] In the case of the primary cultures, total protein concentration was measured and normalized (Bradford, 1976). […]

Chain of tPA (P00750 36-562): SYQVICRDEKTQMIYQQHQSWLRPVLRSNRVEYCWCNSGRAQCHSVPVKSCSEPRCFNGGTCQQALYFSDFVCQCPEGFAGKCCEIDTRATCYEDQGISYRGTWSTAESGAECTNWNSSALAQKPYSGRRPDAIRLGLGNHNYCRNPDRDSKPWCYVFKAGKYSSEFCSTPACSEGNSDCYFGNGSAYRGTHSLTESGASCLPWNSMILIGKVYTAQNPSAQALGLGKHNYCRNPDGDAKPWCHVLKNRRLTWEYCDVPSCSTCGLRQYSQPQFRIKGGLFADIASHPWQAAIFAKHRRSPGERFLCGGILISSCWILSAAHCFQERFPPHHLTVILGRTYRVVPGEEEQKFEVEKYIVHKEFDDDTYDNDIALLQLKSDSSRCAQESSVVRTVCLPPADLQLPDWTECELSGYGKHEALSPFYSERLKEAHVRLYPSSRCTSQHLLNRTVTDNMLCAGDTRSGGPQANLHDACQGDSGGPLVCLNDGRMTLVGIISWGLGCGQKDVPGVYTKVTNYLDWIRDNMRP
T1 sequence (Q9NRA1 23-345): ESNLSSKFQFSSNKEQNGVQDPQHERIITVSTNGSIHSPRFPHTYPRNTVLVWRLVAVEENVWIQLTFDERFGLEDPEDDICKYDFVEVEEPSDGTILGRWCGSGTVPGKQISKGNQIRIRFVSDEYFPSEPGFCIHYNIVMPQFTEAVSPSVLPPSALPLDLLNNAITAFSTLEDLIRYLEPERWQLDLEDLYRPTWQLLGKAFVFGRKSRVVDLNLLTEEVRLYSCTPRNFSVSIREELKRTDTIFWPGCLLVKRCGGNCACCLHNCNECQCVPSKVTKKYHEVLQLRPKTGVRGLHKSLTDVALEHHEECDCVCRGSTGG

B1: PDCUBPC: chimeric PDGF-C carrying the CUB domain from PDGF-D and the hinge region and growth factor domain of PDGF-C (protein)
chain: RDTSATPQSASIKALRNANLRRDESNHLTDLYRRDETIQVKGNGYVQSPRFPNSYPRNLLLTWRLHSQENTRIQLVFDNQFGLEEAENDICRYDFVEVEDISETSTIIRGRWCGHKEVPPRIKSRTNQIKITFKSDDYFVAKPGFKIYYSLLEDQFTEAVSPSVLPPSALPLDLLNNAITAFSTLEDLIRYLEPERWQLDLEDLYRPTWQLLGKAFVFGRKSRVVDLNLLTEEVRLYSCTPRNFSVSIREELKRTDTIFWPGCLLVKRCGGNCACCLHNCNECQCVPSKVTKKYHEVLQLRPKTGVRGLHKSLTDVALEHHEECDCVCRGSTGG
cleavage of the PDGF-CC form by coexpressed tPA [1]: neither chimeric PDCUBPC, nor the truncation mutants lacking the CUB domain, were efficiently cleaved

B2: α2-anti-plasmin: specific plasmin inhibitor (#4030, American Diagnostica Inc.) (protein, UniProt P08697 40-491, looked up)
Alpha-2-antiplasmin: NQEQVSPLTLLKLGNQEPGGQTALKSPPGVCSRDPTPEQTHRLARAMMAFTADLFSLVAQTSTCPNLILSPLSVALALSHLALGAQNHTLQRLQQVLHAGSGPCLPHLLSRLCQDLGPGAFRLAARMYLQKGFPIKEDFLEQSEQLFGAKPVSLTGKQEDDLANINQWVKEATEGKIQEFLSGLPEDTVLLLLNAIHFQGFWRNKFDPSLTQRDSFHLDEQFTVPVEMMQARTYPLRWFLLEQPEIQVAHFPFKNNMSFVVLVPTHFEWNVSQVLANLSWDTLHPPLVWERPTKVRLPKLYLKHQMDLVATLSQLGLQELFQAPDLRGISEQSLVVSGVQHQSTLELSEVGVEAAAATSIAMSRMSLSSFSVNRPFLFFIFEDTTGLPLFVGSVRNPNPSAPRELKEQQDSPGNKDFLQSLKGFPRGDKLFGPDLKLVPPMEEDYPQFGSPK
effect on release of core PDGF-C by tPA [2]: had no effect on the release of core PDGF-C by tPA
